For assay [1], the target named is MMP 3. The assay is described as follows: enzyme inhibition, fluorescent peptide substrate.
In assay [2] the target is MMP 9. The assay is described as follows: enzyme inhibition, fluorescent peptide substrate.
Assay [3] has as its target MMP 13. Nature of the assay: enzyme inhibition, fluorescent peptide substrate.
Assay [4] concerns the target MMP 2. The assay is described as follows: enzyme inhibition, fluorescent peptide substrate.
Assay [5] has as its target MMP 14. Nature of the assay: enzyme inhibition, fluorescent peptide substrate.
Assay [6] addresses MMP 1. The assay is described as follows: enzyme inhibition, fluorescent peptide substrate.
The target of assay [7] is TACE catalytic domain (human) (human) (UniProt P78536). The assay is described as follows: cell-based or functional assay.
The target in assay [8] is Human ADAM10 protease containing the catalytic/disintegrin domains (human) (UniProt O14672). The assay is described as follows: cell-based or functional assay.
In assay [9] the target is T1, ADAM 8 catalytic domain (mouse) (mouse) (UniProt Q05910).
T1 sequence (looked up): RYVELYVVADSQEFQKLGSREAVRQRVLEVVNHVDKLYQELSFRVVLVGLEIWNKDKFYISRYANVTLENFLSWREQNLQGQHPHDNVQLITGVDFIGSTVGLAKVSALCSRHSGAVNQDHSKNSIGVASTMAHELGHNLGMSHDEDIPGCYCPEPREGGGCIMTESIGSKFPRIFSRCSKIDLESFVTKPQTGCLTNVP
The assay is described as follows: cell-based or functional assay.

Assay [10] has as its target Human TACE protease containing the catalytic/disintegrin domains (human) (UniProt P78536). The assay is described as follows: cell-based or functional assay.

The source of these data is US20100081620A1.

A value given as a limit tells only on which side of the number the result lay.

Human ADAM10 protease containing the catalytic/disintegrin domains (human), sequence (O14672 214-672 limits assumed): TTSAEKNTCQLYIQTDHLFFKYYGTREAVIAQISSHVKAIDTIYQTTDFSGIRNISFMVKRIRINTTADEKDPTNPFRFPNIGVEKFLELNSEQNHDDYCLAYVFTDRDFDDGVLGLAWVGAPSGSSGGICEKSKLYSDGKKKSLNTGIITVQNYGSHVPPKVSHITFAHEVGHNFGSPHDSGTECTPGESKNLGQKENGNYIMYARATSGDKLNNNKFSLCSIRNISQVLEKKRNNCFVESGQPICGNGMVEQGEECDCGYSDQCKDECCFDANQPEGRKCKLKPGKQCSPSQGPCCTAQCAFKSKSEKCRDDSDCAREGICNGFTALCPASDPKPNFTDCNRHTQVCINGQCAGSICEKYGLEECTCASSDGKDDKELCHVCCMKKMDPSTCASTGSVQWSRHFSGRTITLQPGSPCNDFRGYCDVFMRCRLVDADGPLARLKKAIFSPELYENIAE
TACE catalytic domain (human) (human), sequence (P78536 215-477 limits assumed): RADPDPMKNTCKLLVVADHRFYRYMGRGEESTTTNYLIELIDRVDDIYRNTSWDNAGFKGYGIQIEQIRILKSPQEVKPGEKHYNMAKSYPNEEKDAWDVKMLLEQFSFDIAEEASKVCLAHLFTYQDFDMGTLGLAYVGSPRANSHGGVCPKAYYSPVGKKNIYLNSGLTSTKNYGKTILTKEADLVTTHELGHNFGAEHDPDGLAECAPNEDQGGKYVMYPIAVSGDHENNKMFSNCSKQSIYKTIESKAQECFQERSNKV
MMP 9, sequence (P14780 107-707): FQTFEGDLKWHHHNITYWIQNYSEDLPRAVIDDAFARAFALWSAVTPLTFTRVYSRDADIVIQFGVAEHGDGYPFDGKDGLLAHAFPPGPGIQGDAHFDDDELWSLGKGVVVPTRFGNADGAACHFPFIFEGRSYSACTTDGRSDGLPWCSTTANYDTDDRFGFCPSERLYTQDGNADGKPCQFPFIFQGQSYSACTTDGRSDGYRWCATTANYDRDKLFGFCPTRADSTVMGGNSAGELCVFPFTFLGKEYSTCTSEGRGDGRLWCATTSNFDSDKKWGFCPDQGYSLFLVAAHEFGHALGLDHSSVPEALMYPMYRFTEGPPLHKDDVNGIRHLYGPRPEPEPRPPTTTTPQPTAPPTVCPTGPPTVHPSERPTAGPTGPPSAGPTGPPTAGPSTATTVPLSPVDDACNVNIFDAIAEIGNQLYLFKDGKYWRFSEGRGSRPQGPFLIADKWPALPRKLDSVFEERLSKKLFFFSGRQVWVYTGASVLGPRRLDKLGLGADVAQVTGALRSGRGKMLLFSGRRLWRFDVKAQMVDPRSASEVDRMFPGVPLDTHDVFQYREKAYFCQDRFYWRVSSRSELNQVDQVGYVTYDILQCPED
Human TACE protease containing the catalytic/disintegrin domains (human), sequence (P78536 215-671 limits assumed): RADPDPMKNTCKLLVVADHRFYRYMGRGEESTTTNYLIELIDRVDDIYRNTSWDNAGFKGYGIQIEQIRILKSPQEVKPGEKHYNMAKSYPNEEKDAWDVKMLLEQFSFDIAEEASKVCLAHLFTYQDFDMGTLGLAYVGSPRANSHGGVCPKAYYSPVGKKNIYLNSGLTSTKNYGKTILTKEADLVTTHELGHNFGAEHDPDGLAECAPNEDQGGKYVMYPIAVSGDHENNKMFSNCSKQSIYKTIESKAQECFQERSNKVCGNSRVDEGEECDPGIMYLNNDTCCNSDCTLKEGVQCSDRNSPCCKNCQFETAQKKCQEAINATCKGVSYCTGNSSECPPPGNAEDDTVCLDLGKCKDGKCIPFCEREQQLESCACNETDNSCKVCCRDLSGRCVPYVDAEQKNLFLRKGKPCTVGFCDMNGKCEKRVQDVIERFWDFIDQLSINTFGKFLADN
MMP 3, sequence (P08254 100-477): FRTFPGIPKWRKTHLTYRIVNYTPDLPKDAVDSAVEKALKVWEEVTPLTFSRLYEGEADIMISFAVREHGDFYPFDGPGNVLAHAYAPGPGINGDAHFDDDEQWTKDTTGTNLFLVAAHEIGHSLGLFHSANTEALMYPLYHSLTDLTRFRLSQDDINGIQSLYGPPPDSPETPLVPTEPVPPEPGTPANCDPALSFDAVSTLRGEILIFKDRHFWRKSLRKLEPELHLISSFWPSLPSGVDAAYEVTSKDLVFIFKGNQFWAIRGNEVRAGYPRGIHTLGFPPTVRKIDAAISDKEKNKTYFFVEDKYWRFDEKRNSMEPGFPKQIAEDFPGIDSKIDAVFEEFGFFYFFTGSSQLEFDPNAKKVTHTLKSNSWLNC
MMP 2, sequence (P08253 110-660): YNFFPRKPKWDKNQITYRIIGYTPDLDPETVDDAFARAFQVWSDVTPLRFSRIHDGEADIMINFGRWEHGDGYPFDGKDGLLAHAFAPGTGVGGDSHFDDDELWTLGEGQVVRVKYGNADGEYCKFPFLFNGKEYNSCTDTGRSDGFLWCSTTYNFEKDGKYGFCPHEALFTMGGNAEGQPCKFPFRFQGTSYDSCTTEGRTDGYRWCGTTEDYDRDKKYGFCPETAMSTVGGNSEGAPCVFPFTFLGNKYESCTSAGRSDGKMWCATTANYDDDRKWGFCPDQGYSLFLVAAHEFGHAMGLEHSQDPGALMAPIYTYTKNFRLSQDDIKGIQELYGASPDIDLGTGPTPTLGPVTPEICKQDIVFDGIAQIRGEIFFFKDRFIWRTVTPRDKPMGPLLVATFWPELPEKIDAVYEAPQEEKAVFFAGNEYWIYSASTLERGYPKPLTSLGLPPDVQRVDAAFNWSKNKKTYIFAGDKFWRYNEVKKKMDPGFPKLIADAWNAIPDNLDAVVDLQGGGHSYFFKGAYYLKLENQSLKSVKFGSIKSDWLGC
MMP 1, sequence (P03956 100-469): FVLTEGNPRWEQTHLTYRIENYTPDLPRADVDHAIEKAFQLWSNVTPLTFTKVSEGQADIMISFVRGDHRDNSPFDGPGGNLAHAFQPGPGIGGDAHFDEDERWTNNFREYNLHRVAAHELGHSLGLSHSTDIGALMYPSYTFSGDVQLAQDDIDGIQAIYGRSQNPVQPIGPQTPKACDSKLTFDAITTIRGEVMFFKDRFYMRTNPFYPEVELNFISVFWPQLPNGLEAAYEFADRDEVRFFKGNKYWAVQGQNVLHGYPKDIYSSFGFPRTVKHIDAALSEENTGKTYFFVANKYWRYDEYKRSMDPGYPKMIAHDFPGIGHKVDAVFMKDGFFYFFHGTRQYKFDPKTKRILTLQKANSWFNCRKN

B1: wt ProADAM 10 23-213 (C-terminal His tag) (protein)
chain: NPLNKYIRHYEGLSYNVDSLHQKHQRAKRAVSHEDQFLLLDFHAHGRQFNLRMKRDTSLFSDEFKVETSNKVPDYDTSHIYTGHIYGEEGSFSHGSVIDGRFEGFIKTRGGTFYIEPAERYIKDRILPFHSVIYHEDDINYPHKYGPQGGCADHSVFERMRKYQMTGVEEGARAHPEKHAASSGPELLRKKHHHHHH
For the molecule B1, the Ki in [1], in assay [2], in assay [3], in assay [4], in assay [5] and in assay [6] was greater than 2000 nM in each case.

B2: Pro ADAM 17 (mouse) (protein, UniProt Q9Z0F8 18-214, looked up, not shown: small tags and cut ends)
chain: PRPPEEAGSGSHPRLEKLDSLLSDYDILSLANIQQHSIRKRDLQSATHLETLLTFSALKRHFKLYLTSSTERFSQNLRVVVVDGKEESEYSVKWQNFFSGHVVGEPDSRVLAHIGDDDVTVRINTDGAEYNVEPLWRFVNDTKDKRMLVYKSEDIKDFSRLQSPKVCGYLNADSEELLPKGLIDREPSEEFVRRVKR
As for B2, the prodomain inhibition of enzyme activity (percent) in assay [7] was found to be 37%; in assay [8], 11%; in assay [9], 17%.

B3: Pro ADAM 8 (mouse) (protein, UniProt Q05910 18-186, looked up, not shown: small tags and cut ends)
chain: GPPLPHVKQYEVVWPRRLAASRSRRALPSHWGQYPESLSYALGTSGHVFTLHLRKNRDLLGSSYTETYSAANGSEVTEQLQEQDHCLYQGHVEGYEGSAASISTCAGLRGFFRVGSTVHLIEPLDADEEGQHAMYQAKHLQQKAGTCGVKDTNLNDLGPRALEIYRAQP
Take B3: the prodomain inhibition of enzyme activity (percent) in assay [10] worked out at 13%; in assay [7], 50%; in assay [8], 25%; in assay [9], 9%.
